Measured values reported in patent publication US20050037969A1 (ARBOR VITA, published 2005).
Ends that are not written are not given here. * marks the point of attachment. Biotin = O=C1N[C@H]2[C@H](CS[C@H]2CCCCC(=O)*)N1

T1: GST-TAX-IP43 PDZ domain fusion protein (human, UniProt Q13884 109-180)
T1 construct: also called TAX43; not shown: glutathione S-transferase encoded by vector pGEX-3X (Pharmacia)
T1 sequence: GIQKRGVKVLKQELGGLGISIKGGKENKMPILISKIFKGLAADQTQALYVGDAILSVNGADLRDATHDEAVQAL

T2: GST-PTN-4 PDZ domain fusion protein (Homo sapiens (Human), UniProt P29074 517-605)
T2 construct: also called protein-tyrosine phosphatase meg1; not shown: glutathione S-transferase encoded by vector pGEX-3X (Pharmacia)
T2 sequence: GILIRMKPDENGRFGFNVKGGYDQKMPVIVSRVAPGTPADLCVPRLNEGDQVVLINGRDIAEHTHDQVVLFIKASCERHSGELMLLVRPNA

T3: K559 PDZ-GST fusion protein (Homo sapiens (Human), UniProt Q9Y6V0 4489-4593)
T3 construct: Order of GST and PDZ part and limits not seen in the excerpts
T3 sequence: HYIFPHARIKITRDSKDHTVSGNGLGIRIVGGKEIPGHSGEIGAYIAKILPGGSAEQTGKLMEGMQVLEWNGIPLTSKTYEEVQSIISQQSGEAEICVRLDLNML

T4: GST-KIAA0303 PDZ domain fusion protein (Homo sapiens (Human), UniProt O15021 1138-1228)
T4 construct: also called K303; not shown: glutathione S-transferase encoded by vector pGEX-3X (Pharmacia)
T4 sequence: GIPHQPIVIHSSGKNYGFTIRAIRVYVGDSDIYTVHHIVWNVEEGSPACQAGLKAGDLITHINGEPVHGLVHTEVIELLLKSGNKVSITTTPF

T5: TAX-IP2L PDZ-GST fusion protein (Homo sapiens (Human), UniProt Q8TF64 107-197)
T5 construct: Order of GST and PDZ part and limits not seen in the excerpts
T5 sequence: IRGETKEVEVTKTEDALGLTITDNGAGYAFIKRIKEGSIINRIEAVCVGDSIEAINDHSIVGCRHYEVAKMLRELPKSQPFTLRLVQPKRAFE

T6: GST-mouse syntenin fusion protein (Mus musculus, UniProt O08992 108-286)
T6 construct: also called Mus musculus Syntenin; not shown: glutathione S-transferase encoded by vector pGEX-3X (Pharmacia)
T6 chain: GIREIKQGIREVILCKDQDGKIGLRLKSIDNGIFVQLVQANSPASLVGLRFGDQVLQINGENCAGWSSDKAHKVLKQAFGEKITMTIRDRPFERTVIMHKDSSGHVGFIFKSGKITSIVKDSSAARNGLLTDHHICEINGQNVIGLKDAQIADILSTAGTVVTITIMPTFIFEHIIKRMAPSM

T7: MINT3 PDZ-GST fusion protein
T7 construct: Order of GST and PDZ part and limits not seen in the excerpts
T7 chain: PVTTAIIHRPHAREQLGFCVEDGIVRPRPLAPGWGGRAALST

T8: GST-CASK PDZ domain fusion protein (Homo sapiens, UniProt O14936 486-575)
T8 construct: also called Homo sapiens CASK protein
T8 sequence: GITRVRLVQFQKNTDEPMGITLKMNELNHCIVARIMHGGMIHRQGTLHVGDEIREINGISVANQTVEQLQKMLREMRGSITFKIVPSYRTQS

T9: GEF PDZ-GST fusion protein (Homo sapiens (Human), UniProt Q8TEU7 293-400)
T9 construct: The label GEF is not explained in the excerpts
T9 sequence: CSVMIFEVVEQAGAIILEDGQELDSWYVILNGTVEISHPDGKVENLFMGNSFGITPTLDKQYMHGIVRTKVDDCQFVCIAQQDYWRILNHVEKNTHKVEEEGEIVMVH

T10: GST-DVL1 PDZ domain fusion protein (human, UniProt O14640 247-339)
T10 construct: also called human dishevelled segment polarity protein homolog; not shown: glutathione S-transferase encoded by vector pGEX-3X (Pharmacia)
T10 sequence: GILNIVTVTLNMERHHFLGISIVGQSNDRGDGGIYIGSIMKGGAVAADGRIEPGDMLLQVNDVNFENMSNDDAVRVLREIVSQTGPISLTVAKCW

T11: TAX-IP33 PDZ-GST fusion protein (Homo sapiens (Human), UniProt O14910 103-193)
T11 construct: Order of GST and PDZ part and limits not seen in the excerpts
T11 sequence: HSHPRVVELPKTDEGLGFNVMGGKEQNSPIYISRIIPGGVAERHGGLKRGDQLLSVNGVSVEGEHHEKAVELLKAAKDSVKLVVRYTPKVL

T12: GST-DLG5 (p-dlg) PDZ domain fusion protein (Human, UniProt Q8TDM6 1343-1583)
T12 construct: also called Human discs large protein p-dlg; not shown: glutathione S-transferase encoded by vector pGEX-3X (Pharmacia)
T12 sequence: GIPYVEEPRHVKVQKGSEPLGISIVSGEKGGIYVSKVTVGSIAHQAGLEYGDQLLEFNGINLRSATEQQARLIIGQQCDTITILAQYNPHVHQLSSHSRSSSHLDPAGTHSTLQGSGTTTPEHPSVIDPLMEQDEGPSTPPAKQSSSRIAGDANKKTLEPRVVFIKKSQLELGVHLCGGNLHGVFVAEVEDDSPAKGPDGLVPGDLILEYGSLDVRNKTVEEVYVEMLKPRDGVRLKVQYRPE

T13: SP short PDZ-GST fusion protein (Homo sapiens (Human), UniProt O43464 350-435)
T13 construct: The label SP short is not explained in the excerpts
T13 sequence: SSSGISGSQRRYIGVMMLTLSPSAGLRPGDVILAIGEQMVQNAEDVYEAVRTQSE

T14: KIAA0807 (PDZ domain)-GST fusion protein (human, UniProt Q6P0Q8 1104-1192)
T14 construct: also called K807; KIAA807; not shown: glutathione S-transferase encoded by vector pGEX-3X (Pharmacia)
T14 sequence: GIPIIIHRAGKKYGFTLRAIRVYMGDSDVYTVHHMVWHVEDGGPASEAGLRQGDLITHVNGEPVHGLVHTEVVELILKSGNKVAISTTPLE

B1: CD105 C-terminal peptide AA16L, biotinylated (peptide)
peptide: Biotin-STNHSIGSTQSTPCSTSSMA
notes: also called CD105 (endoglin)
B2: CD5 C-terminal peptide AA49L (peptide)
peptide: Biotin-SMQPDNSSDSDYDLHGAQRL
notes: Only the last four residues are seen in the excerpts
B3: FasL C-terminal peptide AA23L-M, biotinylated (peptide)
peptide: Biotin-SSKSKSSEESQTFFGLYKL
modifications: not fully specified
notes: also called FasLigand; Fas ligand
B4: CD62E C-terminal peptide AA48L (peptide)
peptide: Biotin-SSSQSLESDGSYQKPSYIL
notes: as for B2
B5: CC CKR-3 C-terminal peptide AA43L (peptide)
peptide: Biotin-LERTSSVSPSTAEPELSIVF
notes: as for B2
B6: CD114 (G-CSFR) C-terminal peptide AA27L (peptide)
peptide: Biotin-LNFPLLQGIRVHGMEALGSF
notes: as for B2
B7: CD148 C-terminal peptide AA19L, biotinylated (peptide)
peptide: Biotin-ENLAPVTTFGKTNGYIA
notes: also called CD148 (DEP-1)

target: T1, GST-TAX-IP43 PDZ domain fusion protein; test: A/G assays

Binding result, no binding:
B1
B2
B3
B4
B5
B6
B7

target: T2, GST-PTN-4 PDZ domain fusion protein; test: A/G assays

Binding result, no binding:
B1
B2
B3
B4
B5
B6
B7

target: T15, K316 PDZ-GST fusion protein (Homo sapiens (Human), UniProt Q14CM0 72-159); test: A/G assays
T15 construct: Order of GST and PDZ part and limits not seen in the excerpts
T15 sequence (Q14CM0 72-159 limits assumed): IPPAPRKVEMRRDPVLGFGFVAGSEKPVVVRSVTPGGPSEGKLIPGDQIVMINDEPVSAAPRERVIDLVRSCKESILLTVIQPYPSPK

Binding result, no binding:
B1
B2
B3
B4
B5
B6
B7

target: T3, K559 PDZ-GST fusion protein; test: A/G assays

Binding result, no binding:
B1
B2
B3
B4
B5
B6
B7

target: T4, GST-KIAA0303 PDZ domain fusion protein; test: A/G assays

Binding result, no binding:
B1
B2
B3
B4
B5
B6
B7

target: T5, TAX-IP2L PDZ-GST fusion protein; test: A/G assays

Binding result, no binding:
B1
B2
B3
B4
B5
B6
B7

Target: T6, GST-mouse syntenin fusion protein
Test: A/G assays

Binding result, no binding:
B1
B2
B3
B4
B5
B6
B7

Target: T7, MINT3 PDZ-GST fusion protein
Test: A/G assays

Binding result, no binding:
B1
B2
B3
B4
B5
B6
B7

target: T8, GST-CASK PDZ domain fusion protein; test: A/G assays

Binding result, no binding:
B1
B2
B3
B4
B5
B6
B7

target: T9, GEF PDZ-GST fusion protein; test: A/G assays

Binding result, no binding:
B1
B2
B3
B4
B5
B6
B7

target: T16, NOS1 PDZ-GST fusion protein (Homo sapiens (Human), UniProt P29475 11-100); test: A/G assays
T16 construct: Order of GST and PDZ part and limits not seen in the excerpts
T16 sequence (P29475 11-100 limits assumed): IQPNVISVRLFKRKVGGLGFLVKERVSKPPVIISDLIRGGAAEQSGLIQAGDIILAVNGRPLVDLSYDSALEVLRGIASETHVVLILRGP

Binding result, no binding:
B1
B2
B3
B4
B5
B6
B7

target: T10, GST-DVL1 PDZ domain fusion protein; test: A/G assays

Binding result, no binding:
B1
B2
B3
B4
B5
B6
B7

target: T11, TAX-IP33 PDZ-GST fusion protein; test: A/G assays

Binding result, no binding:
B1
B2
B3
B4
B5
B6
B7

target: T12, GST-DLG5 (p-dlg) PDZ domain fusion …; test: A/G assays

Binding result, no binding:
B1
B2
B3
B4
B5
B6
B7

target: T17, PICK1 PDZ-GST fusion protein (Bos taurus (Bovine), UniProt Q2T9M1 17-105); test: A/G assays
T17 construct: Order of GST and PDZ part and limits not seen in the excerpts
T17 sequence (Q2T9M1 other isoform, or with tags, fused parts or gaps limits assumed): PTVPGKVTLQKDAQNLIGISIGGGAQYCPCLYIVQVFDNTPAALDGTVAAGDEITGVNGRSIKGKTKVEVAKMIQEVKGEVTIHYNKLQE

Binding result, no binding:
B1
B2
B3
B4
B5
B6
B7

target: T13, SP short PDZ-GST fusion protein; test: A/G assays

Binding result, no binding:
B1
B2
B3
B4
B5
B6
B7

target: T14, KIAA0807 (PDZ domain)-GST fusion protein; test: A/G assays

Binding result, no binding:
B1
B2
B3
B4
B5
B6
B7
